We go through 6 molecules from patent US20240059799A1 (Pfizer, published 2024).

In assay [1] the target is T1, bovine serum albumin (bovine, UniProt P02769 25-607).
T1 construct: also called BSA
Description: direct binding ELISA on coated BSA. The method, then:
(§1) For the direct binding ELISA method to HSA or BSA, 96-well high binding plates (Corning, product number 3590) were coated with 1 μg/mL recombinant HSA or BSA in 100 μL/well in PBS overnight at 4° C. Plates were then blocked in PBS+0.02% casein solution and washed with PBS+0.05% Tween-20 following standard ELISA protocol. […] Plates were washed with PBS+0.05% Tween-20 following standard ELISA protocol, and goat anti-human IgG-Fc HRP conjugated secondary antibody (Pierce, #31413) diluted to 1:10,000 in assay buffer was added to plates and incubated for 1 hour at room temperature. Next, the plates were washed with PBS+0.05% Tween-20 following standard ELISA protocol, and then TMB substrate (BioFX Laboratories, catalog number TMBW-0100-01) was added to plates.
(§2) Reactions were stopped after approximately 5 minutes by adding 0.18 M ortho-phosphoric acid to each well and absorbance was read at 450 nm. […] For this method, samples diluted to 0.3 mg/mL were dispensed into the sample tray of a MicroCal VP-Capillary DSC with Autosampler (Malvern Instruments, Inc.), equilibrated for 5 minutes at 10° C. and then scanned up to 110° C. at a rate of 100° C. per/hour. A filtering period of 16 seconds was selected. Raw data was baseline corrected and the protein concentration was normalized. Origin Software 7.0 (Origin Lab Corporation, Northampton, MA) was used to fit the data to an MN2-State Model with an appropriate number of transitions.
In general terms: ELISA stands for enzyme-linked immunosorbent assay.

Assay [2] addresses T2, human serum albumin (human, UniProt P02768 25-609).
T2 construct: also called HSA
Description: direct binding ELISA on coated HSA. The method, then: as §1, §2

T1 sequence (P02769 25-607 limits assumed): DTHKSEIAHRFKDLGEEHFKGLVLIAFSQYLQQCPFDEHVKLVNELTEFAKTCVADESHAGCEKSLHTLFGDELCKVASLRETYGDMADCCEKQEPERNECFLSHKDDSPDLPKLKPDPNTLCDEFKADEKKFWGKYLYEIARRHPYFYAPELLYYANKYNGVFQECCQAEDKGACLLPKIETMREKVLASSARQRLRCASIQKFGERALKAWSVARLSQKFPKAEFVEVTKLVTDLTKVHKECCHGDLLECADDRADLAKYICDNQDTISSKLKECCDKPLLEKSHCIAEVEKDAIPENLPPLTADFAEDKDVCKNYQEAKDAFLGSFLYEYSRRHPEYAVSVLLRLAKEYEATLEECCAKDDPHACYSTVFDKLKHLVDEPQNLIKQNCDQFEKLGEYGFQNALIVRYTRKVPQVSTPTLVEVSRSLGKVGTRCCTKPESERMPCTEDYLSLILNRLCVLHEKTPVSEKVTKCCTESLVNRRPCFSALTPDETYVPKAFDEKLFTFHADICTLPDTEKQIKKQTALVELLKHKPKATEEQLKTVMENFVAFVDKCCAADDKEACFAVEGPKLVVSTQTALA

B1: TL1A-0371 MBsAb (bispecific antibody)
heavy 1: QVQLVQSGAEVKKPGASVKVSCKASGYDYTYYGISWVRQAPGQGLEWMGWISTYNTGTHYAPSLQGRVTMTTDTSTSTAYMELRSLRSDDTAVYYCARESYYGSGAFRGGMDVWGQGTTVTVSSASTKGPSVFPLAPSSKSTSGGTAALGCLVKDYFPEPVTVSWNSGALTSGVHTFPAVLQSSGLYSLSSVVTVPSSSLGTQTYICNVNHKPSNTKVDKKVEPKSCDKTHTCPPCPAPEAAGAPSVFLFPPKPKDTLMISRTPEVTCVVVDVSHEDPEVKFNWYVDGVEVHNAKTKPREEQYNSTYRVVSVLTVLHQDWLNGKEYKCKVSNKALPAPIEKTISKAKGQPREPQVCTLPPSREEMTKNQVSLWCLVKGFYPSDIAVEWESNGQPENNYKTTPPVLDSDGSFFLYSKLTVDKSRWQQGNVFSCSVLHEALHSHYTQKSLSLSPGK
heavy 2: not shown
light: not shown
notes: not shown: human IgG1 constant region with hole KiH, effector-minimizing and LS mutations
For the molecule B1, the binding result in assay [1] and in assay [2] was “no binding (tested: 0.5-1000 nM)” in each case.

B2: TL1A-0368 MBsAb (bispecific antibody)
heavy 1: QVQLVQSGAEVKKPGASVKVSCKASGYDYTYYGISWVRQAPGQGLEWMGWISTYNTGTHYAPSLQGRVTMTTDTSTSTAYMELRSLRSDDTAVYYCARESYYGSGAFRGGMDVWGQGTTVTVSSASTKGPSVFPLAPSSKSTSGGTAALGCLVKDYFPEPVTVSWNSGALTSGVHTFPAVLQSSGLYSLSSVVTVPSSSLGTQTYICNVNHKPSNTKVDKKVEPKSCDKTHTCPPCPAPEAAGAPSVFLFPPKPKDTLMISRTPEVTCVVVDVSHEDPEVKFNWYVDGVEVHNAKTKPREEQYNSTYRVVSVLTVLHQDWLNGKEYKCKVSNKALPAPIEKTISKAKGQPREPQVCTLPPSREEMTKNQVSLWCLVKGFYPSDIAVEWESNGQPENNYKTTPPVLDSDGSFFLYSKLTVDKSRWQQGNVFSCSVLHEALHSHYTQKSLSLSPGK
heavy 2: QVQLVQSGAEVKKPGASVKVSCKASGYTFTSYGISWVRQAPGQGLEWMGWISAYNGNTNYAQKLQGRVTMTTDTSTSTAYMELRSLRSDDTAVYYCARESYYGSEAFRAGMDVWGQGTTVTVSS
light: not shown
notes: as for B1
On to B2, for which the binding result in assay [1] and in assay [2] was “no binding (tested: 0.5-1000 nM)” throughout.

B3: TL1A-0374 MBsAb (bispecific antibody)
heavy 1: QVQLVQSGAEVKKPGASVKVSCKASGYDYTYYGISWVRQAPGQGLEWMGWISTYNTGTHYAPSLQGRVTMTTDTSTSTAYMELRSLRSDDTAVYYCARESYYGSGAFRGGMDVWGQGTTVTVSSASTKGPSVFPLAPSSKSTSGGTAALGCLVKDYFPEPVTVSWNSGALTSGVHTFPAVLQSSGLYSLSSVVTVPSSSLGTQTYICNVNHKPSNTKVDKKVEPKSCDKTHTCPPCPAPEAAGAPSVFLFPPKPKDTLMISRTPEVTCVVVDVSHEDPEVKFNWYVDGVEVHNAKTKPREEQYNSTYRVVSVLTVLHQDWLNGKEYKCKVSNKALPAPIEKTISKAKGQPREPQVCTLPPSREEMTKNQVSLWCLVKGFYPSDIAVEWESNGQPENNYKTTPPVLDSDGSFFLYSKLTVDKSRWQQGNVFSCSVLHEALHSHYTQKSLSLSPGK
heavy 2: not shown
light: not shown
notes: as for B1
B3: the binding result in assay [1] and in assay [2] was “no binding (tested: 0.5-1000 nM)” in each case.

B4: TL1A-0370 MBsAb (bispecific antibody)
heavy 1: QVQLVQSGAEVKKPGASVKVSCKASGYDYTYYGISWVRQAPGQGLEWMGWISTYNTGTHYAPSLQGRVTMTTDTSTSTAYMELRSLRSDDTAVYYCARESYYGSGAFRGGMDVWGQGTTVTVSSASTKGPSVFPLAPSSKSTSGGTAALGCLVKDYFPEPVTVSWNSGALTSGVHTFPAVLQSSGLYSLSSVVTVPSSSLGTQTYICNVNHKPSNTKVDKKVEPKSCDKTHTCPPCPAPEAAGAPSVFLFPPKPKDTLMISRTPEVTCVVVDVSHEDPEVKFNWYVDGVEVHNAKTKPREEQYNSTYRVVSVLTVLHQDWLNGKEYKCKVSNKALPAPIEKTISKAKGQPREPQVCTLPPSREEMTKNQVSLWCLVKGFYPSDIAVEWESNGQPENNYKTTPPVLDSDGSFFLYSKLTVDKSRWQQGNVFSCSVLHEALHSHYTQKSLSLSPGK
heavy 2: QVQLVQSGAEVKKPGASVKVSCKASGYTFTSYGISWVRQAPGQGLEWMGWISAYNGNTNYAQKLQGRVTMTTDTSTSTAYMELRSLRSDDTAVYYCARESSYGSEAFRAGMDVWGQGTTVTVSS
light: not shown
notes: as for B1
Consider B4, for which the binding result in assay [1] and in assay [2] was “no binding (tested: 0.5-1000 nM)” each time.

B5: TL1A-0375 MBsAb (bispecific antibody)
heavy 1: QVQLVQSGAEVKKPGASVKVSCKASGYDYTYYGISWVRQAPGQGLEWMGWISTYNTGTHYAPSLQGRVTMTTDTSTSTAYMELRSLRSDDTAVYYCARESYYGSGAFRGGMDVWGQGTTVTVSSASTKGPSVFPLAPSSKSTSGGTAALGCLVKDYFPEPVTVSWNSGALTSGVHTFPAVLQSSGLYSLSSVVTVPSSSLGTQTYICNVNHKPSNTKVDKKVEPKSCDKTHTCPPCPAPEAAGAPSVFLFPPKPKDTLMISRTPEVTCVVVDVSHEDPEVKFNWYVDGVEVHNAKTKPREEQYNSTYRVVSVLTVLHQDWLNGKEYKCKVSNKALPAPIEKTISKAKGQPREPQVCTLPPSREEMTKNQVSLWCLVKGFYPSDIAVEWESNGQPENNYKTTPPVLDSDGSFFLYSKLTVDKSRWQQGNVFSCSVLHEALHSHYTQKSLSLSPGK
heavy 2: not shown
light: not shown
notes: as for B1
In the case of B5, the binding result in assay [1] and in assay [2] was “no binding (tested: 0.5-1000 nM)” each time.

B6: TL1A-0373 MBsAb (bispecific antibody)
heavy 1: QVQLVQSGAEVKKPGASVKVSCKASGYDYTYYGISWVRQAPGQGLEWMGWISTYNTGTHYAPSLQGRVTMTTDTSTSTAYMELRSLRSDDTAVYYCARESYYGSGAFRGGMDVWGQGTTVTVSSASTKGPSVFPLAPSSKSTSGGTAALGCLVKDYFPEPVTVSWNSGALTSGVHTFPAVLQSSGLYSLSSVVTVPSSSLGTQTYICNVNHKPSNTKVDKKVEPKSCDKTHTCPPCPAPEAAGAPSVFLFPPKPKDTLMISRTPEVTCVVVDVSHEDPEVKFNWYVDGVEVHNAKTKPREEQYNSTYRVVSVLTVLHQDWLNGKEYKCKVSNKALPAPIEKTISKAKGQPREPQVCTLPPSREEMTKNQVSLWCLVKGFYPSDIAVEWESNGQPENNYKTTPPVLDSDGSFFLYSKLTVDKSRWQQGNVFSCSVLHEALHSHYTQKSLSLSPGK
heavy 2: not shown
light: not shown
notes: as for B1
Take B6: the binding result in assay [1] and in assay [2] was “no binding (tested: 0.5-1000 nM)” throughout.
